Columns and labels:
[1] = tested on: B-cell lines including CLL cells; details: compared with rituximab; cited from earlier work
[2] = tested on: patients with relapsed/refractory CLL and related diseases; test: Phase 1b/2 study of ibrutinib combined with ofatumumab (NCT01217749): efficacy; format: in vivo, human; details: group 3, ofatumumab lead-in before initiating ibrutinib
From the text: Key eligibility criteria also included failure of ≧2 prior therapies including a nucleoside analogue (unless contraindicated); ≧10% expression of CD20 on CLL/SLL cells by flow cytometry; ECOG performance status ≦2; and adequate end-organ function.
This phase 1 b/2, single-center, open-label, sequential-group study was approved by the institutional review board and conducted in accordance with the principles of the Declaration of Helsinki and the International Conference on Harmonization Guidelines for Good Clinical Practice.

[3] = tested on: patients with relapsed/refractory CLL; details: single agent; cited from earlier work

Substance: ofatumumab: anti-CD20 monoclonal antibody that binds to an epitope distinct from that for rituximab
- complement-dependent cytotoxicity and NK-cell ADCC [1]: more potent
- patients who progressed (PD) on ofatumumab monotherapy [2]: 17%
- Major bleeding events ≧ grade 3 [3]: 1.6%
- peripheral sensory neuropathy (grade 1 and 2) [3]: 13%

From US20170360796A1, “BTK INHIBITOR COMBINATIONS AND DOSING REGIMEN” (PHARMACYCLICS LLC, priority 2014, published 2017)
